In article PMC11844729:

Target: F-actin (actin filaments from rabbit skeletal muscle actin) (rabbit), P68135
Assay: single-molecule TIRF microscopy
Conditions: remark: other sources report otherwise

fold landing frequency on F-actin against mN2G^SR: 20 fold
B1: utrophin N-terminal fragment (amino acids 1 to 261)-sfGFP-6xHis, P46939 1-261 (domain or fragment)
chain: MAKYGEHEASPDNGQNEFSDIIKSRSDEHNDVQKKTFTKWINARFSKSGKPPINDMFTDLKDGRKLLDLLEGLTGTSLPKERGSTRVHALNNVNRVLQVLHQNNVELVNIGGTDIVDGNHKLTLGLLWSIILHWQVKDVMKDVMSDLQQTNSEKILLSWVRQTTRPYSQVNVLNFTTSWTDGLAFNAVLHRHKPDLFSWDKVVKMSPIERLEHAFSKAQTYLGIEKLLDPEDVAVQLPDKKSIIMYLTSLFEVLPQQVTID
modifications: here or on the partner: 30% DyLight-650 NHS ester-labelled and optionally 5% biotinylated (EZ-Link NHS-PEG4-biotin) actin
